The text below walks through data of IntAct's records for PubMed 29415205.

The chains are these.
B1: Glycine--tRNA ligase (Homo sapiens), P41250 (parent)
chain: MPSPRPVLLRGARAALLLLLPPRLLARPSLLLRRSLSAASCPPISLPAAASRSSMDGAGAEEVLAPLRLAVRQQGDLVRKLKEDKAPQVDVDKAVAELKARKRVLEAKELALQPKDDIVDRAKMEDTLKRRFFYDQAFAIYGGVSGLYDFGPVGCALKNNIIQTWRQHFIQEEQILEIDCTMLTPEPVLKTSGHVDKFADFMVKDVKNGECFRADHLLKAHLQKLMSDKKCSVEKKSEMESVLAQLDNYGQQELADLFVNYNVKSPITGNDLSPPVSFNLMFKTFIGPGGNMPGYLRPETAQGIFLNFKRLLEFNQGKLPFAAAQIGNSFRNEISPRSGLIRVREFTMAEIEHFVDPSEKDHPKFQNVADLHLYLYSAKAQVSGQSARKMRLGDAVEQGVINNTVLGYFIGRIYLYLTKVGISPDKLRFRQHMENEMAHYACDCWDAESKTSYGWIEIVGCADRSCYDLSCHARATKVPLVAEKPLKEPKTVNVVQFEPSKGAIGKAYKKDAKLVMEYLAICDECYITEMEMLLNEKGEFTIETEGKTFQLTKDMINVKRFQKTLYVEEVVPNVIEPSFGLGRIMYTVFEHTFHVREGDEQRTFFSFPAVVAPFKCSVLPLSQNQEFMPFVKELSEALTRHGVSHKVDDSSGSIGRRYARTDEIGVAFGVTIDFDTVNKTPHTATLRDRDSMRQIRAEISELPSIVQDLANGNITWADVEARYPLFEGQETGKKETIEE

The variants in the experiment derive from B1. The following applies: with hdac6_human HDAC6, Q9UBN7.
hdac6_human HDAC6, Q9UBN7, sequence (Q9UBN7 whole entry): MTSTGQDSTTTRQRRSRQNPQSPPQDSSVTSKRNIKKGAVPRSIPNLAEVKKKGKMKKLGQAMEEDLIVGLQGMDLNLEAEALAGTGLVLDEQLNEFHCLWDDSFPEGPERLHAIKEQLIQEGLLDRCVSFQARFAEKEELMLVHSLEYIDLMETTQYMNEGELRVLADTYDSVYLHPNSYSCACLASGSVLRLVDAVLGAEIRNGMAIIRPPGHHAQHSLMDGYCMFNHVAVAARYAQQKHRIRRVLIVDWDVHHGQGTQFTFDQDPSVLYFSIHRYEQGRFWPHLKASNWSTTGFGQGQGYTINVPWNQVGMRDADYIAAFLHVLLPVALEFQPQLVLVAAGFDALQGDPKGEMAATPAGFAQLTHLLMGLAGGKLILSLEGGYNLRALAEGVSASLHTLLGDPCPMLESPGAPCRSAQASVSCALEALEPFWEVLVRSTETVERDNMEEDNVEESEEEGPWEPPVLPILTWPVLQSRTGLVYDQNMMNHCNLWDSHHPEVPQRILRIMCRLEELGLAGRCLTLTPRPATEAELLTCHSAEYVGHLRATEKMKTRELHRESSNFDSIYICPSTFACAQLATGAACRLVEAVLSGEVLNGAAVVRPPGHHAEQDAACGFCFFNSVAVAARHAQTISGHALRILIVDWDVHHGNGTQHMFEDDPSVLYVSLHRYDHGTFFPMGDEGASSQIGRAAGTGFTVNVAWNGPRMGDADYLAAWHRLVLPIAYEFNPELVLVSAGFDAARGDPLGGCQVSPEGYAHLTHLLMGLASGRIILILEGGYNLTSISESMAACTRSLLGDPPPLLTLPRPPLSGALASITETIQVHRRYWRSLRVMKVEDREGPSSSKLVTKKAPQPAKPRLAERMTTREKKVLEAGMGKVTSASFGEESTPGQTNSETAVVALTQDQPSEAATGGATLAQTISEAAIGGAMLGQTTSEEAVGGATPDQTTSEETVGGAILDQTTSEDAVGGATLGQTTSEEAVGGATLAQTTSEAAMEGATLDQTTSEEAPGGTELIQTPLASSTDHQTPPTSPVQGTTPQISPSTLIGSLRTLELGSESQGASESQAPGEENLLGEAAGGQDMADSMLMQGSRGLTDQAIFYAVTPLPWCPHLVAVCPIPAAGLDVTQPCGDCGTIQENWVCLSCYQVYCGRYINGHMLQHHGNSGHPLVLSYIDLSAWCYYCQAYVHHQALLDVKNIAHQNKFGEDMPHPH
Turning to C211R, the “effect of a mutation on the interaction” value was “with no effect”.
